B1: soluble alkaline phosphatase-FLRT3 ectodomain fusion protein (AP-FLRT3ΔTM) (domain or fragment, Xenopus, UniProt Q70AK3 29-527, looked up)
chain: KPCPSVCRCDAGFIYCNDRDLTSIPSGIPDDATTLYLQNNQINNAGIPSDLKGLDKVERIYLYRNSLDEFPINLPKNVKELHLQENNIRTITYDALLQIPFIEELHLDDNSVSAVSIEDGAFRDNIFLRLLFLSRNHLSTIPWGLPKTIEELRLDDNRISTISEISLQDLTNLKRLVLDGNLLNNNGLGERVFMNLINLTELSLVRNSLTSPPANLPGTSLRKLYLQENHMNYVPPNSFADLTQLYRLDMSNNNLTALPQGIFDDLDNLTQLFLRNNPWYCGCKMKWVRDWLQSLPSKVNVRGLMCQAPERVRGMTIKDLNKELFDCKDRIGSNTIHVTTTMLNSLLPAQGQWPVPVTKQPEIRPPDINKIFRTTPIPVKKIITIQVKSITTETIYISWKVALPMTALRLSWQLGHSPVFGSITETIVTGDRAEYLLTALEPESPYRICMVPMETGNIYLSDETPVCIETETAPLKMYNPTTTLNREQEKEPYKNSSLP
notes: FLRT3, Xenopus, ectodomain (ΔTM); also called AP-tagged FLRT3ΔTM; source: conditioned medium, concentrated
B2: Unc5D (splice variant of the mouse Unc5D gene) (receptor)
chain: ARGADGSEILPDSIPSAPGTLPHFIEEPEDAYIIKSNPIALRCKARPAMQIFFKCNGEWVHQNEHVSEESLDESSGLKVREVFINVTRQQVEDFHGPEDYWCQCVAWSHLGTSKSRKASVRIAYLRKNFEQDPQGREVPIEGMIVLHCRPPEGVPAAEVEWLKNEEPIDSEQDENIDTRADHNLIIRQARLSDSGNYTCMAANIVAKRRSLSATVVVYVNGGWSSWTEWSACNVRCGRGWQKRSRTCTNPAPLNGGAFCEGMSVQKITCTALCPVDGSWEVWSEWSVCSPECEHLRIRECTAPPPRNGGKFCEGLSQESENCTDGLCILDKKPLHEIKPQSIENASDIALYSGLGAAVVAVAVLVIGVTLYRRSHSDYGVDVIDSSALTGNSLLLNPAMQPDLTVSRTYSGPICLQDPLDKELMTESSLFNPLSDIKVKVQSSFMVSLGVSERAEYHGKNHSGTFPHGNNRGFSTIHPRNKTPYIQNLSSLPTRTELRTTGVFGHLGGRLVMPNTGVSLLIPHGAIPEENSWEIYMSINQGEPSLQSDGSEVLLSPEVTCGPPDMLVTTPFALTIPHCADVSSEHWNIHLKKRTQQGKWEEVMSVEDESTSCYCLLDPFACHVLLDSFGTYALTGEPITDCAVKQLKVAVFGCMSCNSLDYNLRVYCVDNTPCAFQEVISDERHQGGQLLEEPKLLHFKGNTFSLQVSVLDIPPFLWRIKPFTACQEVPFSRVWSSNRQPLHCAFSLERYTPTTTQLSCKICIRQLKGHEQILQVQTSILESERETITFFAQEDSTFPAQTGPKAFKIPYSIRQRICATFDTPNAKGKDWQMLAQKNSINRNLSYFATQSSPSAVILNLWEARHQQDGDLDSLACALEEIGRTHTKLSNITEPQIDDADFNYSRQNGL

Columns and labels:
[1] = biological target: T1, Xenopus Unc5B (Xenopus, UniProt Q8JGT4 31-943); assay: equilibrium binding of an alkaline phosphatase fusion protein to transfected cells, binding curves and Scatchard analysis; different amounts of concentrated AP-FLRT3ΔTM conditioned medium on transfected cells, 1 h at RT; washed with PBS containing 0.2 M NaCl; cells lysed; AP activity read at 405 nm, normalised to cell number; details: partners not purified
T1 construct: Netrin receptor Unc5B, Xenopus; Constructs are in Text S1; source: HEK293T, transfected, on cells
T1 sequence (Q8JGT4 31-943): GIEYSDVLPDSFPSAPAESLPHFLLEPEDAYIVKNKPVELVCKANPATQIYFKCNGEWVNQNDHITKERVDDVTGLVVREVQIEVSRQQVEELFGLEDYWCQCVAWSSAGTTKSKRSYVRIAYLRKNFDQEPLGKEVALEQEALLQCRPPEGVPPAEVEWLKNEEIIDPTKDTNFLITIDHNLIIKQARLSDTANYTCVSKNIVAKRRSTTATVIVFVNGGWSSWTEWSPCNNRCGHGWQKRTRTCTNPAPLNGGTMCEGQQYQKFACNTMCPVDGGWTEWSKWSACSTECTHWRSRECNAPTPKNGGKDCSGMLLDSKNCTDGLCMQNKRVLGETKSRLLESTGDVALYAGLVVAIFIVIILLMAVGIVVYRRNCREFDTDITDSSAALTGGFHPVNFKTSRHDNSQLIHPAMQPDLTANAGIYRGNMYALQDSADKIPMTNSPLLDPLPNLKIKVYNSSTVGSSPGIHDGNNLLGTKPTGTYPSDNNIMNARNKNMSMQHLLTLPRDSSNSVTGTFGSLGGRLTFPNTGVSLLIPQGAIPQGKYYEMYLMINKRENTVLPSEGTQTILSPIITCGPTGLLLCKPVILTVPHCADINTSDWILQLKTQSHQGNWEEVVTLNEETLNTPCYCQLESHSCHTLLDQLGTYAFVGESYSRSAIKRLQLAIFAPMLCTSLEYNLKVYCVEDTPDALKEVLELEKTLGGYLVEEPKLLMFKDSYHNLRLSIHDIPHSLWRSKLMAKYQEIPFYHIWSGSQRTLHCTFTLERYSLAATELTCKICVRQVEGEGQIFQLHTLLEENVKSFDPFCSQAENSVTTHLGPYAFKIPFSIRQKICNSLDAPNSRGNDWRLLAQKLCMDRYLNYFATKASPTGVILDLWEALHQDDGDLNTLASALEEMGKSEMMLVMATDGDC

[2] = biological target: B1; assay: as above; details: partners not purified

Binder	Kd [1] [nM]	Kd [2] [nM]
B1	50	–
B2	–	26

— paper PMC2683942, “Unc5B Interacts with FLRT3 and Rnd1 to Modulate Cell Adhesion in Xenopus Embryos” (PLoS ONE, 2009)
